Measurements from patent US20210040232A1.

B1: H1H19303P (antibody, human IgG1, kappa, V domains shown)
VH: EVQLVESGGGLVQPGGSLRLSCAASGFTFSNYEMSWVRQAPGKGLEWVSSIRTSGTTKYYADSMKGRFTISRDNAKNSLYLQMNSLRAEDTAVYYCAGGGTFLHYWGQGTLVTVSS
VL: DIQMTQSPSSVSASVGDRVTITCRASQGIASYLAWYQQKPGKAPKLLIYAASSLQTGVPSRFSGSGYGTDFTLTISSLQPEDFATYYCQQAKSFPMYTFGQGTKLEIKR
B2: H1H19264P (antibody, human IgG1, V domains shown)
VH: QVQLVQSGAEVKKPGASVKVSCKASDYTFTSYGISWVRQAPGQGLEWMGWISVYNGNINYAQKFKGRVTMTTDTSTSTAYMELRSLRSDDMAVYYCARVTQFGMDVWGQGTTVTVSS
VL: DIQMTQSPSSLSASVGDRVTITCRASQSISSNLNWYQQNPGKAPKLLIYTTSSLQGGVPSRFSGSGSGTDFTLTISSLQPEDFATYYCQQSFRTPFTFGPGTKVDIK
B3: H1H19313P (antibody, human IgG1, V domains shown)
VH: QITLKESGPTLVKPTQTLTLTCTFSGFSLSTSGVGVGWIRQPPGVALEWLALIYWNDDKRFSPSLKSRLTITKDTSKNQVVLTMTNMDPVDTATYYCAHRRLGLYYFDYWGQGTLVTVSS
VL: DIQLTQSPSFLSASVGDRVTITCWASQGISSYLAWYQQKPGKAPKLLIYAASTLQSGVPSRFSGSGSGTEFTLTISSLQPEDFATYYCQQVHIYPFTFGPGTKVDIK
B4: H1H19273P (antibody, human IgG1, V domains shown)
VH: QITLKESGPTLVKPTQTLTLTCTFSGFSLSTSGVGVGWIRQSPGRALEWLALIYWNDHERYSPSLKSRLTITKDTSKNLVVLAMANMDPVDTATYFCAHRNIEYRRSYFFDYWGQGTLVTVSS
VL: DIQMTQSPSSVSASVRDRVTVTCRASQDINNWLAWYQQKPGKAPKLLIYAASSLQSGVPSRFSGSGSGTDFTLTISSLQPEDFATYYCQQANTFPFTFGPGTKVDIK

Columns and labels:
[1] = target: mf CTLA-4 extracellular domain (aa 1-161) fused to the trans-membrane and cytoplasmic domain of hCD300a (aa 181-299), on Jurkat/NFAT-Luc cells (Macaca fascicularis; human) (UniProt G7PL88); assay: ECL cell binding, Jurkat/NFAT-Luc/mfCTLA-4-hCD300a cells
Sequence of mf CTLA-4 extracellular domain (aa 1-161) fused to the trans-membrane and cytoplasmic domain of hCD300a (aa 181-299), on Jurkat/NFAT-Luc cells (Macaca fascicularis; human) (Q9UGN4 other isoform, or with tags, fused parts or gaps, form in doubt): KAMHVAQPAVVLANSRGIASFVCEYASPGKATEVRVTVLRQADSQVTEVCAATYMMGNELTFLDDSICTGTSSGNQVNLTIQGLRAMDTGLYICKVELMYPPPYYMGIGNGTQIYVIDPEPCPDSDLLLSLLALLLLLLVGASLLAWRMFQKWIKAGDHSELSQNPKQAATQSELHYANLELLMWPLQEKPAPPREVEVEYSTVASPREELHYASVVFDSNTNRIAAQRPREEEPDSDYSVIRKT

[2] = target: mf CTLA-4 extracellular domain (aa 1-161) fused to the trans-membrane and cytoplasmic domain of hCD300a (aa 181-299), on Jurkat/NFAT-Luc cells (Macaca fascicularis; human) (UniProt G7PL88); assay: cell-based or functional assay
[3] = target: human CTLA-4 (amino acids M1-N223) on stably transfected VI-fibroblast cells (human) (UniProt P16410); assay: ECL cell binding, VI-fibroblast/hCTLA-4 cells
Sequence of human CTLA-4 (amino acids M1-N223) on stably transfected VI-fibroblast cells (human) (P16410 36-223 limits assumed): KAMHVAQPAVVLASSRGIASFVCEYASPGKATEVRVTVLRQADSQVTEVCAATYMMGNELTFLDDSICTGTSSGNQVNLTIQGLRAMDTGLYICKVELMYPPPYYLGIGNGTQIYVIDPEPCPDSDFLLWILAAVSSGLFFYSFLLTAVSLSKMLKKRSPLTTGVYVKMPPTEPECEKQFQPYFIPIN

Row | Binder | EC50 [1] [nM] | EC50, T-cell/APC IL-2 release assay, APC HEK293/hCD20/hCD86 [2] [nM] | EC50, T-cell/APC NFAT-luciferase assay, +Fc Block [2] [nM] | EC50, T-cell/APC NFAT-luciferase assay, -Fc Block [2] [nM] | Fold induction of IL-2 at 100 nM, APC HEK293/hCD20/hCD86 [2] [fold] | ratio of RLU signal to parental VI-fibroblast at 0.4 nM Ab [3]
1 | B1 | 0.11 | 40.9 | 1.77 | 1.28 | 4.4 | –
2 | B2 | – | – | – | – | – | 1
3 | B3 | 0.14 | 21.9 | 1.84 | 1.34 | 6.1 | –
4 | B4 | 0.22 | 11.4 | 1.83 | 3.05 | 6.5 | –
